B1: F11AP11E5 (antibody, V domains shown)
VH: QVQLQQSGAELVKPGASVKLSCKASGYTFTNYYMYWVKQRPGQGLEWIGEINPGNGGTNFNEKFKNKATLTVDKSSSTAYMQLSSLTSEDSAVYYCTTRFAYWGQGTLVIVSA
VL: DVVMTQTPLSLSVTIGQPASISCKSGQSLLYSNGKTYLTWLQQRPGQAPKLLMYQVSKLDPGIPDRFSGSGSETDFTLKISRVEAEDLGVYYCLQNTYYPHTFGAGTKLELKR
notes: Murine IgG purified from hybridoma supernatant
B2: F12P7G11 (antibody, V domains shown)
VH: QVQLQQSGAELARPGASVKLSCKASGYTFSSHWMQWVKQRPGQGLEWIGAIYPGDGDTRFTQKFKGKATLTADKSSNTAYMQLSSLASEDSAVYYCARGIYYDRSRAMDYWGQGTSVTVSS
VL: QIVLSQSPAILSASPGEKVTMTCRASSSVNYMHWYQQKPGSSPKHWIYATSYLASGVPARFSGSGSGTSYSLTISRVEAEDAATYYCQQWSSDPLTFGAGTKLELKR
notes: as for B1

Biological target: T1, mouse CD138 His (mouse, UniProt P18828 23-255, limits assumed)
T1 construct: also called mCD138; not shown: His tag
T1 sequence: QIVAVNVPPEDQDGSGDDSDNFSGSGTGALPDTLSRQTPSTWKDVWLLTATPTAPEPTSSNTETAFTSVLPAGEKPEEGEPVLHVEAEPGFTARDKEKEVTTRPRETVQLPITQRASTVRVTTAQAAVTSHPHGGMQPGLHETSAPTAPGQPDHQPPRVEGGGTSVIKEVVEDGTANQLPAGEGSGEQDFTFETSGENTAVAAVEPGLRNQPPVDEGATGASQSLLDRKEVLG
Experiment: SPR, mouse CD138 His immobilised, antibody as analyte
Method: Murine IgGs were purified from the hybridoma supernatants and the IgGs were subject to SPR (surface plasmon resonance) for kinetic binding measurements. […] […] KDs were measured using bivalent analyte fit.

| Binder | binding result |
| --- | --- |
| B1 | no binding |
| B2 | no binding |

Reference: patent US20200181278A1 (MITSUBISHI TANABE PHARMA, published 2020)
